# The nanobody polyreactivity screen of Harvey et al. (2022)
# Assay: yeast display, Sf9 membrane polyspecificity reagent, FACS + sequencing; frameworks hold sequencing errors
# How it was run: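 After 36–48 hours of galactose induction, yeast (Saccharomyces cerevisiae BJ5465) displaying a synthetic nanobody library were stained at 4 °C for 1 hour with 10% biotinylated, detergent-solubilized Sf9 membrane reagent. Streptavidin microbeads enriched the stained cells before FACS sorting into low and high (top ~1%) gates on anti-HA and streptavidin fluorescence. Each clone's polyreactivity label reflects its gate of origin.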
row,Sequence,polyreactivity (PSR sort gate)
1,QVQLVESGGGLVQAGGSLRLSCAASGNIFDSYGMGWYRQAPGKERELVATINTSSGSTYYADSVKGRFTISRDNAKNTVYIQMNSLKPEDTAVYYCAAEWYPYTWGYGYWGQGTQVTVSS,low polyreactivity
2,QVQLVESGGGLVQAGGSLRLSCAASGSTFDYNAMGWYRQAPGTERELVAAISRGGNTYYADSVKGRFTISRDNAKNTVYLQMNSLKPEDTAVYYCAKDSYGSYRFVRKRQKAYGYWGQGTQVTVSS,low polyreactivity
3,QVQLVESGGGLVQAGGSLRLTCAASGSTSEVYAMGWYRQAPGKEREFVAAISRSGGTTYYADSVKGRFTISRDNAKNTVYLQMKSVKPEDTAVYYCNARGYSGVSGKYGYWGQGTQVTVSS,high polyreactivity
4,QVQLVESGGGLVQAGGSLRLSCADSGSTFVNYAMGWYRQAPGKERELVAAISSTGGSTYYADSVKGRFTISRDNAKNTVYLQMNSLKPEDTAVYYCAAYRYFKMGYWGQGTQVTVSS,high polyreactivity
5,QVQLVESGGGLVQAGGSLRLSCAASGRIFFIYAMGWYRQAPGKERELVAAISYDSGSTYYADSVKGRFTISRDNAKNTVSLQMNSLKPEDTAVYYCAAEWGLVIYSTYGYDYWGQGTQVTVSS,low polyreactivity
6,QVQLVESGGGLVQAGGSLRLSCAASGRIFTNNPMGWYRQAPGQERELVAAISRSGGRTYYADSVKGRFTISRDNAKNTVYLQRNCLKPEDTAVYYCAAVHLYYGYNSPFTMDYWGQGTQVTVSS,high polyreactivity
7,QVQLVESGGGLVQAGGSLRLSCAASGSTFGVYAMGWYRQAPGKERELVAAISSSTGSTYYADSVKGRFTISRDNAMNSVYLQMNSLKPEDTAVYYCDAAGYGKVLGDYWGQGTLVTVSS,low polyreactivity
8,QVQLVESGGGLVQAGGSLRLSCAASGRTFKWNAMGWYRQAPGKERELVAAISSRDGSTYYADSVKGRFTISRDNAKNTVYLQMNSLKPEDTAVYYCNAYFTGARQRTLGYDYWGQGTQVTVSS,low polyreactivity
9,QVQLVESGGGLVQAGGSLRLSCAASGRIFKYYAMGWYRQAPGKERELVAAISQNGGRTYYADSVKGRFTISRDNAKNTVYLQMNSLKPEDTAVYYCAAGWRSYAGYYQGEFGYWGQGTQVTVSS,high polyreactivity
10,QVQLVESGGGLVQAGGSLRLSCAASGIIFYLYTMGWYRQAPGKERELVAAITRGGSTYYADSVKGRFTISRDNAKNTVYLQMNSLKPEDTSVYYCAAKHGPGYRRWYDYWGQGTQVTVSS,high polyreactivity
11,QVQLVESGGGLVQAGGSLRVSCAASGSIFRWYTMGCYRQAPGKEREFVADISWSGGRTYYADSVKGRFTISRDNASYSVYLQMNCLKPEDTAVYYCNAEHNTRYDYWGQGTQVSVSS,low polyreactivity
12,QVQLVESGGGLVQAGGSLRLSCAASGSTFYANAMGWYRQAPGKERELVAAITRSGAGTYYADSVKGRFTFSRDNAKNTVYLQMNSLKPEDTAVYYCATRYGQWGQGTQVTVSS,high polyreactivity
13,QVQLVESVGGLVQAGGSLRLSCAASGSIFNRYAMGRYRQAPGKERELVAAISTHTGTTYYADSVKGRFTISRDNAKNTVYLQMNSLKPEDTAVYYCAKRSRYGYGKSYDYWGQGTQVTVSS,high polyreactivity
14,QVQLVESGGGLVQAGGSLRLSCAASGFYNTMGWYRQAPGKERELVAAISTGGITNYADSVKGRFTISRDNSKNTFYFQMKSLIPEDTAVYYCAADGYSTVSSTYDYWGQGTQVTVSS,low polyreactivity
15,QDQLVESGGGLVQAGGSLRLSCAASGRTFHSYVMGWYRQAPGKERELVAAISRSGGNTYYADSVKGRFTISRDNAKNTVYLQMNSLKPEDTAVYYCAAALSAYVKWDYYYWGQGTQVTVSS,low polyreactivity
16,QVQLVESWRGLVQEGGSLRLSCAASGRTFYSYAMGWYIQAPGKERELVAAITRRGTSTYYADSVKGRFTISRDNAKNTVYLQMNSLKPEDTAVYYCAARLPGTFSYGYWGQGTQVTVSS,high polyreactivity
17,QVQLVESGGGLVQAGGSLRLSCAASGSTFGLYGMGWYRQAPGKDRELVAAITWSGGSTYYADSVKGRFTISRDNAKNTVYLQMNSLKPEDTAVYYSNADYYYWFSYGIGDNEYDYWGQGTQVTVSS,low polyreactivity
18,QVQLVESGGGLVQAGGSLRLSCAASGSTFLPYAMGWYRQAPGKERELVAAITWRTGSTYYADSVKGRFTISRDNAKNTVYLQMNSLKPEDTAVYYCNAKQRGKFDYWGQGTQVTVSS,low polyreactivity
19,QDQLVESGGGLVQAGGSLRLSCAASGSMFDYYAMGWYRQAPGKERELVAAISGSGSRTYYADSVKGRFTISRVTAKNTVYIQMNRLKPEDTAFYYCAAESVVYDIVGYEYWYDYYWGLGTQVTVSS,high polyreactivity
20,QVQLVESGGGSVQAGGSLRLSCAASGIIFWYYTMGWYRQATGKERELVAAISWSSGITYYADSLKGRFTISRDNAKNTVYLQMNSLKPEDTAVYYCSAGYYKGFTLVRVIFDYWGQGTQVTVSS,low polyreactivity
21,QVQLVESGGGLVQAGGSLRLSCAASGIIFTGYTMGWYRQAPGKERELVAAITWRGGSTYYADSVKGRFTISRDNAKNTVYLQMNSLKPEDTAVYYCAAEGWYSWDDDYWGQGTQVTVSS,low polyreactivity

row,Sequence,polyreactivity (PSR sort gate)
1,QVQLVESGGGLVQAGGSLRLSCAASGNIFYAYDMGWYRQAPGKERELVAAITNGDSTDYADSVKGRFTISRDNAKNTVYLQMNSLKPEDTAVYYCATDIHSVHNNRDKHDYDYWGQGTQVTVSS,low polyreactivity
2,QVQLVESGGGLVQAGGSLRLSCAASGFIIGGYAMGWYRQAPGKERELVASITSGGRTYYADSVKGRFSISRDNAKNTVFLQMNSLKPEDTAVYDCAARQQTYYYKIYYWGQGSQVTVSS,high polyreactivity
3,QVQLVESGGGLVQAGGSLRLSCAASGITFLVYVMGWYRQAPGKERELVAAISSGGSTYYADSVKGRFTISRDNAKNTVYLQMNSLKPEDTAVYYCSADTVGTNVVSPELDYWGQGTQVTVSS,low polyreactivity
4,QVQLVESGGGLVQAGGSLRLSCAASGRTFSGNAMGWYIQAPRKDRELVAAISSGGSTNYADSVKGRFTISRDNAKNTVYLQMNSLEPEDTAVYYCAADEWRFPSYAYYYWGQGTQVTVSS,low polyreactivity
5,QVQLVKSGGGLVQAGGSLRLSCAASGFIIPEYTMGWYRQAPVKERELVAAISGSGGSTYYADSVKGRFTISRDNAKNTVYLQMNSLKPEDTAVYYCAASYAVSRYLQTYAHAHGYWGQGTQVTVSS,low polyreactivity
6,QVQLVESGGGLVQAGGSLRLSCAASGSIFYSNAMGWYRQAPGKERELVAAITRRGGSTYYADSVKGRFTISRDNAKNTVYLQMNSLKPEDTAVYYCNRDPDIYIGYDYWGQGTQVTVSS,high polyreactivity
7,QVQLVESGGGLVQAGGSLRLSCAASGSTFVGYAMGWYRLAPGKEREFVAAITRGGSTNYADSVKGRFTISRDNAKNTVYLQMNSLKPEDTAVYYCAARDRREGFNFDYCGQGTQVTVSS,low polyreactivity
8,QVQLVESGGGLVQAGGSLRLSCAASGRLFNYNAMGWYRQAPGKERELVASITVSRGSTYYADSVKGRFTISRDNATNTVYLQMYSLKPEDTAVYNCAADYGSKLDYGYWGQGTQVTVSS,low polyreactivity
9,QVQLVESGGGLVQAGGSLRLSCAASGRIYGNAMGWYRQAPGKERELDAAISFSVSSTNYADSVKGRFTISRDNAKNTVYLQMNSLKPEDTAVYYCAADWIGPTYPEMYYWGQGTQVTVSS,low polyreactivity
10,QVQLVETGGGLVQAAGSLRLSTAASGSTYWCNTMGWYRQAPGKERELVADIRTSGGGTYYADSVKGRFTISRDNAKNTVYLQMNRLKPEDTAVYYCNAVPNWEMGSWGLGTQVTVSS,low polyreactivity
11,QVQLVESGGGLVQAGGSLRLSCAASGGTFSFNAMGWYRQAPGKERELVAAITQTGDGTYYADSVKGRFTISRDNAKNTVYLQMNSLKPEDTAVYYCNTDSIPYVPWFRFDYWGQGTQVTVSS,low polyreactivity
12,QVQLVESGGGLVQAGGSLRLSCAPSGSIFLHYAMGRYRQAPGKERDLVAAISRSGGRTYYADSVKGRFTISRDNAKNTVYLQMNSLKPEDTAVYYCAARVPRYRKDSVWAYYYWGQGTQVTVSS,high polyreactivity
13,QVQLVESGGGLVQAGGSLRLSCAASGLIFRWYAMGWYRQAPGKERELDAAISTSGGRTYYADSVKGRFTISRDNAKNTVYLQMNSLKPEDTAVYYCNAQHASWYTAYSVSFDYWGQGTQVTVSS,low polyreactivity
14,QDQLVESGGGLVQAGGSLRLSCAASGLTLLHYAMGWYRQAPGKERELVAAISTRGGSTYYADSVKGRFTISRDNAKNTVYLQMNSLKPEDTADYYCNALKGRPRGTAGYYRVEYWGQGTQVTVSS,high polyreactivity
15,QVQLVESGGGLVQAGGSLRLSCAPSGSILRYYAMGWYRQAPGKEREFVAAISWSGTSTYYADSVKGRFTISRDIAKNTVYLQMNSLKPEDTAVYYCAARTYYVPYYYWGQGTQVTVSS,high polyreactivity
16,QVQLVESGGGLVQAGGSLRLSCAASGRTFPSYAKGLYRQAPGKERELVASISRGASTNYADSVMGRFTISRDNAKNCVFLQMNSLKPEDTAVYFWAANDSWVYTYYYWGQGTQVTVSS,high polyreactivity
17,QVQLVESGGGLVQAGGSLRLSCAASGRIFSGYVKGWYRQAPGKERELVASISRGGSTNYADSVKGRFTISRDNAKNTVYLQMNSLKPEDTAVYYCNKRWFAPPPYSYVRSYDYWGQGTQVTVSS,low polyreactivity
18,QVQLVESGGGLVQAGGSLRLSCAASGITFTSYAMGWYRQAPGKERELVAAISSSGGSTYYADSVKGRFTISRDNAKNTVYLQMNSLKPEDPAVYYCNARPRSRSPRVEYDYWGQGTQVTVSS,high polyreactivity
19,QVQLVESGGGLVQAGGSLRLSCAASGRTFTTIAMGWYRQAPGKERELVSAINSGGSTNYADSVKGRFTISRDNAKNTVYLQMNSLKPEDTAVYYCAKRQRDYSSVFDVDYWGQGTQVTVSS,low polyreactivity
20,QVQLVESGGGLVQAGGSLRLSCDASGRTFGLNAMGWYRQAPGKERDLVAAISSSGGSTYYADSVKWRFTISRDNAKNTVYLQMNRLKPEDNAVYYCAKVLYRYGNDYYYWGQGTQVTVSS,high polyreactivity
